Test results published in patent publication US20260193376A1.

Target: human plasma-derived Factor IXa (human) (UniProt P00740)
Assay: cell-based or functional assay

Chain of human plasma-derived Factor IXa (human) (P00740 47-191, chain 1 of 2): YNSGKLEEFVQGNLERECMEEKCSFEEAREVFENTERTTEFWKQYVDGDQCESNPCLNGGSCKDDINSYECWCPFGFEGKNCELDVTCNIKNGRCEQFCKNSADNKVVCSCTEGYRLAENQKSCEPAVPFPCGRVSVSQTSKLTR
Chain of human plasma-derived Factor IXa (human) (P00740 227-461, chain 2 of 2): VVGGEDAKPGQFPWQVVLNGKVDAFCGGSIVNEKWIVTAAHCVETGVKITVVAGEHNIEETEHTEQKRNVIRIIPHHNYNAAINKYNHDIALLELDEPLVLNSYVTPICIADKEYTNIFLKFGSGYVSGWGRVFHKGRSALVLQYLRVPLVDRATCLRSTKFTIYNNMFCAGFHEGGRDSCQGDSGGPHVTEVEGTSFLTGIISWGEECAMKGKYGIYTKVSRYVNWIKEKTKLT

Stimulation Index, FXa generation assay, 3260 nM OA antibody: < 10 fold
B1: one-armed (OA) 224F3 antibody (antibody, from another filing, V domains shown)
VH: QVQMQQSGAELVKPGASVKLSCKASGYTFTSQDINWVRQRPEQGLEWIGWIFPGDGSTKYNEKLKGKATLTTDKSSSTAFMQLSRLTSEDSAVYFCARSAYYRYDGSYYYAMDYWGQGTSVTVSS
VL: QIVLTQSPAIMSASLGEEITLTCSASSSVSYMLWYQQKSGTSPKLLIYTTSNLASGVPSRFSGTGSGTFYSLTISSVEAEDAADYYCHQWSSYPRTFGGGTKLEIKR
